# Experimental data published in patent publication US12104181 (University of Texas, dated 2024).
# Biological target: T1, TRIM7-3F (TRIM7 with C-terminal 3×FLAG epitope) (human, UniProt Q9C029 1-511)
# T1 construct: also called WT TRIM7-3F; 3×Flag-tagged TRIM7
# Assay: co-IP with anti-HA beads from co-transfected 293T cells, Western blot
binder,measurement,value
"HA-tagged MenV 2BC (other, domain: 2BC) PFTFKPRQRPVFQTQGAAVSSMAQTLLPNDLASKAMGSAFTALLDANEDAQKAMKIIKTLSSLSDAWENVKGTLNNPEFWKQLLSRCVQLIAGMTIAVMHPDPLTLLCLGVLTAAEITSQTSLCEEIAAKFKTIFTTPPPRFPVISLFQQQSPLKQVNDVFSLAKNLDWAVKTVEKVVDWFGTWVAQEEREQTLDQLLQRFPEHAKRISDLRNGMAAYVECKESFDFFEKLYNQAVKEKRTGIAAVCEKFRQKHDHATARCEPVVIVLRGDAGQGKSLSSQIIAQAVSKTIFGRQSVYSLPPDSDFFDGYENQFAAIMDDLGQNPDGSDFTTFCQMVSTTNLLPNMASLERKGTPFTSQLVVATTNLPEFRPVTIAHYPAVERRITFDYSVSAGPVCSKTEAGCKVLDVERAFRPTGDAPLPCFQNNCLFLEKAGLQFRDNRSKEILSLVDVIERAVTRIERKKKVLTAVQTLVAQ",binding result,no binding
